Target: full-length Brr2, purified, Protein A tag cleaved off (S. cerevisiae, UniProt P32639 1-2163)
Assay: native gel or EMSA

full-length Brr2, purified, Protein A tag cleaved off, sequence (P32639 whole entry): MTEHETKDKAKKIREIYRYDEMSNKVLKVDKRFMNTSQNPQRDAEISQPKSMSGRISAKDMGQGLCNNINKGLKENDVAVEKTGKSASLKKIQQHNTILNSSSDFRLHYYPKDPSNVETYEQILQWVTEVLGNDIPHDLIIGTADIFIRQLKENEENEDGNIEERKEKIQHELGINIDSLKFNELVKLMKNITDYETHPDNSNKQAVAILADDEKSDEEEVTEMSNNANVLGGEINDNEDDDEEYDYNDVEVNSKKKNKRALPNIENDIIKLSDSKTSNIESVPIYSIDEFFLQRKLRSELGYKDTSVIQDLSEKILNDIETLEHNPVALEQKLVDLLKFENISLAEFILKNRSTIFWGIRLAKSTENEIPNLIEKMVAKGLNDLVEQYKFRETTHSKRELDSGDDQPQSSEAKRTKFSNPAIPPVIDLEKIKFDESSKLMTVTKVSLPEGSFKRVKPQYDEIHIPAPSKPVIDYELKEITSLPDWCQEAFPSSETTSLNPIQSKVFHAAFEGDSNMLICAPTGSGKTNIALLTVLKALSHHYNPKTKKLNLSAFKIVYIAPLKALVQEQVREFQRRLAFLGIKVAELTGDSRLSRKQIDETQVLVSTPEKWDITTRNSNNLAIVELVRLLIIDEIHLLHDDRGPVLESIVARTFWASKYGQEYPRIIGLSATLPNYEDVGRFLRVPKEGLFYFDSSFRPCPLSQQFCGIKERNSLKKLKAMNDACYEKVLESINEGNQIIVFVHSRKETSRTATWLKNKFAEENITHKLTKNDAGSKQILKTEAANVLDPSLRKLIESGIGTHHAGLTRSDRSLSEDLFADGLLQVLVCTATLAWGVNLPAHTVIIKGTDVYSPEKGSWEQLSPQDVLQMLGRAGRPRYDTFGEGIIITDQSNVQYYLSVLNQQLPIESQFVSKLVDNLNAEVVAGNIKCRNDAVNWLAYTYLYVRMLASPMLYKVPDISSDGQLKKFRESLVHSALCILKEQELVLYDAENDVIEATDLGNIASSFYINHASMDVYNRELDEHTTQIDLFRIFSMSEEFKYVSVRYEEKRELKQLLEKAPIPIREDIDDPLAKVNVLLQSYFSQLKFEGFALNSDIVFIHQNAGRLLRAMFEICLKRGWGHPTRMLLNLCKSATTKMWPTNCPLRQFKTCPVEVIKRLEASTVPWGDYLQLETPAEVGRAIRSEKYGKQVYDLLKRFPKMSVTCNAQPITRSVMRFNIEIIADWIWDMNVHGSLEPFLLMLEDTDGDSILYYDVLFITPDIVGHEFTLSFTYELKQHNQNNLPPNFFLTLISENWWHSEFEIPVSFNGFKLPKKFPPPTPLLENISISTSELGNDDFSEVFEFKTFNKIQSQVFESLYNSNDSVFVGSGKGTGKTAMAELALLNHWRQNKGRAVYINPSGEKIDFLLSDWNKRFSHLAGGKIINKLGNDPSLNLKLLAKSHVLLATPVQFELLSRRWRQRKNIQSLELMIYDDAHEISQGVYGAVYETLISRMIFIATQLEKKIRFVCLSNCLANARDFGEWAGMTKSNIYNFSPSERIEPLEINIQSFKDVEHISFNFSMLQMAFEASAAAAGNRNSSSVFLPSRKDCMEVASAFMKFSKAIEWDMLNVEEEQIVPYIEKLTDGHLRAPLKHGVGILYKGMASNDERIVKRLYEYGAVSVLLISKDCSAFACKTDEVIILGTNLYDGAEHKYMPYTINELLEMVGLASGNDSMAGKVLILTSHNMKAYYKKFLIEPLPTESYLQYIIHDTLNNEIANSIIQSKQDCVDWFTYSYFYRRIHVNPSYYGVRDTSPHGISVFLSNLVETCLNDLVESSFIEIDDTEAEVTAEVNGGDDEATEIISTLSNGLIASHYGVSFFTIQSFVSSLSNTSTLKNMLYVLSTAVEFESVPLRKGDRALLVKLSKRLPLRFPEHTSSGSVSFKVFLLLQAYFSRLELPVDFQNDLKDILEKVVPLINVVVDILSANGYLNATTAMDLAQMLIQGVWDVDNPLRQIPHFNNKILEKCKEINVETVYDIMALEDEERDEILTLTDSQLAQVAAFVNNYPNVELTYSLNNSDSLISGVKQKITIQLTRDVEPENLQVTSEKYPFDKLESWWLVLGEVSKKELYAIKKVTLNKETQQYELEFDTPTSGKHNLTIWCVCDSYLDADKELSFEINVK

binding result: binds
B1: C-terminal region of Prp8 (Prp8-CTR, residues 1822–2395) (domain or fragment)
chain: GLQIYQSSVQEPFLNSSNYAELFNNDIKLFVDDTNVYRVTVHKTFEGNVATKAINGCIFTLNPKTGHLFLKIIHTSVWAGQKRLSQLAKWKTAEEVSALVRSLPKEEQPKQIIVTRKAMLDPLEVHMLDFPNIAIRPTELRLPFSAAMSIDKLSDVVMKATEPQMVLFNIYDDWLDRISSYTAFSRLTLLLRALKTNEESAKMILLSDPTITIKSYHLWPSFTDEQWITIESQMRDLILTEYGRKYNVNISALTQTEIKDIILGQNIKAPSVKRQKMAELEAARSEKQNDEEAAGASTVMKTKTINAQGEEIVVVASADYESQTFSSKNEWRKSAIANTLLYLRLKNIYVSADDFVEEQNVYVLPKNLLKKFIEISDVKIQVAAFIYGMSAKDHPKVKEIKTVVLVPQLGHVGSVQISNIPDIGDLPDTEGLELLGWIHTQTEELKFMAASEVATHSKLFADKKRDCIDISIFSTPGSVSLSAYNLTDEGYQWGEENKDIMNVLSEGFEPTFSTHAQLLLSDRITGNFIIPSGNVWNYTFMGTAFNQEGDYNFKYGIPLEFYNEMHRPVHFLQF

Reference: publication PMC2743687 (Nature structural & molecular biology, 2009)
